First the molecules themselves.
B1: Rv3859c G20A T21A (dsDNA)
DNA 1: GTTACGTGATCGAATTGTGAACCAGG
DNA 2: CCTGGTTCACAATTCGATCACGTAAC
B2: Rv3859c G20A T21G (dsDNA)
DNA 1: GTTACGTGATCGAATTGTGAGCCAGG
DNA 2: CCTGGCTCACAATTCGATCACGTAAC
B3: Rv3859c G20C (dsDNA)
DNA 1: GTTACGTGATCGAATTGTGCTCCAGG
DNA 2: CCTGGAGCACAATTCGATCACGTAAC
B4: Rv3859c G20A T21C (dsDNA)
DNA 1: GTTACGTGATCGAATTGTGACCCAGG
DNA 2: CCTGGGTCACAATTCGATCACGTAAC
B5: Rv3859c G20T (dsDNA)
DNA 1: GTTACGTGATCGAATTGTGTTCCAGG
DNA 2: CCTGGAACACAATTCGATCACGTAAC
B6: Rv3859c G20A (dsDNA)
DNA 1: GTTACGTGATCGAATTGTGATCCAGG
DNA 2: CCTGGATCACAATTCGATCACGTAAC

As a reminder, the Kd is the concentration at which binding is half-saturated.

The series has as its target T1, MtrA (Mycobacterium tuberculosis H37Rv, UniProt P9WGM7 1-228).
T1 sequence: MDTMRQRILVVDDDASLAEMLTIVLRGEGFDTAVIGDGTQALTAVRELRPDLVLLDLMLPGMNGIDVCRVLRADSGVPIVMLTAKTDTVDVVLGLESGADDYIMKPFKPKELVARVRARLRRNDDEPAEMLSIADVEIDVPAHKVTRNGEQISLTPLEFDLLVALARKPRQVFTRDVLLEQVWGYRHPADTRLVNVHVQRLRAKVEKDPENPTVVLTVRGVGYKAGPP
Description: BLI. As to conditions: protein: recombinant; tags: His6 (pET28a, BamHI/XhoI; N-terminal, inferred from stop codon in reverse primer); chain copies: 2; blunt.
Consider B1, for which the Kd is 19.5 µM.

In the case of B2, the Kd is 15.7 µM.

In the case of B3, the Kd was 7120 µM.

As to B4, the Kd came out at 0.124 µM.

As to B5, the Kd was 4380 µM.

As to B6, the Kd is 0.178 µM.

(Values after paper PMC10609481, “Substrate DNA Promoting Binding of Mycobacterium tuberculosis MtrA by Facilitating Dimerization and Interpretation of Affinity by Minor Groove Width”.)
